How the values were obtained:
PI3Kγ(144-1102)-His6 = PI3Kγ(144-1102)-His6 (human, UniProt P48736 144-1102); assay: ITC
[1] = target: PI3Kα: p110α(2-1068) W1057A/I1058A/F1059A + p85(322-600) (human, UniProt P42336 2-1068; P27986 322-600, W1057A | I1058A | F1059A); assay: ITC

PI3Kγ(144-1102)-His6, sequence (P48736 144-1102): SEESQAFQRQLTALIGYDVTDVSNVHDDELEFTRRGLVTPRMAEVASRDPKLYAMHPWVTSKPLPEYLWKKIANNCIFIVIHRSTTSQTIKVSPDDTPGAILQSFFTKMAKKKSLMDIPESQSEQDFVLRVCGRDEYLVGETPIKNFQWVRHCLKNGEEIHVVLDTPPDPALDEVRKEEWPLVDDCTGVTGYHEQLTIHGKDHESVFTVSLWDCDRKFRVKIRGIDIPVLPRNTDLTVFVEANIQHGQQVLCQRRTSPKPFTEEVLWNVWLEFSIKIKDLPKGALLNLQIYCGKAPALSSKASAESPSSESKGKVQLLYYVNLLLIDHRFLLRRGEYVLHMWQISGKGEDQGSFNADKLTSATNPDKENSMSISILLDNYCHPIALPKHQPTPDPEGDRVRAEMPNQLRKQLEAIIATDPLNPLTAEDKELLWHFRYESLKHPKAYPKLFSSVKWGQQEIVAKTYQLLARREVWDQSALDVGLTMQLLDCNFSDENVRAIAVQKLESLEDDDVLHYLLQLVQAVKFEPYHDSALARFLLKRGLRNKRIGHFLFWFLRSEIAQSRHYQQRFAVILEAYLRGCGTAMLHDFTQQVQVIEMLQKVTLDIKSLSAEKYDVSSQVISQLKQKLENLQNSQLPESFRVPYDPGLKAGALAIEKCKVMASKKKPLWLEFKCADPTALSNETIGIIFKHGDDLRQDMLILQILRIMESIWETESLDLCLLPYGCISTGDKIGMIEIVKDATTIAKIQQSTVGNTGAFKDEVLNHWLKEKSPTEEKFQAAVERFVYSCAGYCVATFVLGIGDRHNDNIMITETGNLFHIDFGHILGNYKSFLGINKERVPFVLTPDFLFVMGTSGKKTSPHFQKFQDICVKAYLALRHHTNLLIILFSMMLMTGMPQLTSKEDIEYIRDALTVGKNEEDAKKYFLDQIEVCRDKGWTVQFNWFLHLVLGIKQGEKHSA

B1: RRAS2 (wild type) (domain or fragment)
chain: MAAAGWRDGSGQEKYRLVVVGGGGVGKSALTIQFIQSYFVTDYDPTIEDSYTKQCVIDDRAARLDILDTAGQEEFGAMREQYMRTGEGFLLVFSVTDRGSFEEIYKFQRQILRVKDRDEFPMILIGNKADLDHQRQVTQEEGQQLARQLKVTYMEASAKIRMNVDQAFHELVRVIRKFQ
- Kd (PI3Kγ(144-1102)-His6): 5.5 µM

B2: RRAS(22-192) (domain or fragment)
chain: GDPPPSETHKLVVVGGGGVGKSALTIQFIQSYFVSDYDPTIEDSYTKICSVDGIPARLDILDTAGQEEFGAMREQYMRAGHGFLLVFAINDRQSFNEVGKLFTQILRVKDRDDFPVVLVGNKADLESQRQVPRSEASAFGASHHVAYFEASAKLRLNVDEAFEQLVRAVRK
- Kd [1]: 27.6 µM
